The record followed here is patent publication US20220195061A1 (Novartis, published 2022).

This assay deals with human CD40 on cells (human, UniProt P25942 21-277). As to the kind of experiment: cell-based or functional assay.
human CD40 on cells, sequence (P25942 21-277 limits assumed): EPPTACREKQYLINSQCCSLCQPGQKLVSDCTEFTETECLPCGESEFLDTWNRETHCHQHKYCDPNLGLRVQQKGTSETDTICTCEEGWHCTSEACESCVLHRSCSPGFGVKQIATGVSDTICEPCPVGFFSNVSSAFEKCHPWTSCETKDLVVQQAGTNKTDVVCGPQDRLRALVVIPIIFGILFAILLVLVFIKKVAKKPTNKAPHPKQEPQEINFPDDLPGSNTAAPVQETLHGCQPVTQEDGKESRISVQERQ

B1: CFZ533 (antibody, human IgG1, kappa, N297A)
heavy: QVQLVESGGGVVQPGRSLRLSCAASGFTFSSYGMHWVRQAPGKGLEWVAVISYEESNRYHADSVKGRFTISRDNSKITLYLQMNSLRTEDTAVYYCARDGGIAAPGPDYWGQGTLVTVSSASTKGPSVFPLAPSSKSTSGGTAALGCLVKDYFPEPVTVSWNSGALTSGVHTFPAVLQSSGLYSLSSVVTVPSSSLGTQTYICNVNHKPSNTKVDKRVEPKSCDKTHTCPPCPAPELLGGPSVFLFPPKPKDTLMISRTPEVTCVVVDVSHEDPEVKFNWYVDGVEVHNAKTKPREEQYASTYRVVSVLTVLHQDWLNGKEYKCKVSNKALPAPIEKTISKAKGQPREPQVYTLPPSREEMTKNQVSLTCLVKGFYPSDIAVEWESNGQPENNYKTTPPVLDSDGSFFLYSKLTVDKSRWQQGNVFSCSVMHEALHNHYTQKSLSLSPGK
light: DIVMTQSPLSLTVTPGEPASISCRSSQSLLYSNGYNYLDWYLQKPGQSPQVLISLGSNRASGVPDRFSGSGSGTDFTLKISRVEAEDVGVYYCMQARQTPFTFGPGTKVDIRRTVAAPSVFIFPPSDEQLKSGTASVVCLLNNFYPREAKVQWKVDNALQSGNSQESVTEQDSKDSTYSLSSTLTLSKADYEKHKVYACEVTHQGLSSPVTKSFNRGEC
Take B1: the “IC50 (read off the curve), rCD154-induced CD69 expression on CD20pos B cells” value was ~0.1 mg/L.
